Results taken from patent US20060035823A1 (published 2006).

What was measured:
[1] = molecular target: T1, His-tagged TRAF-2 (pEBVHis/TRAF-2) (UniProt Q12933 1-501); assay: co-immunoprecipitation from 293T lysates, anti-X-press IP, anti-HA blot
T1 construct: Specificity control, over-expressed in 293T cells
T1 sequence (looked up): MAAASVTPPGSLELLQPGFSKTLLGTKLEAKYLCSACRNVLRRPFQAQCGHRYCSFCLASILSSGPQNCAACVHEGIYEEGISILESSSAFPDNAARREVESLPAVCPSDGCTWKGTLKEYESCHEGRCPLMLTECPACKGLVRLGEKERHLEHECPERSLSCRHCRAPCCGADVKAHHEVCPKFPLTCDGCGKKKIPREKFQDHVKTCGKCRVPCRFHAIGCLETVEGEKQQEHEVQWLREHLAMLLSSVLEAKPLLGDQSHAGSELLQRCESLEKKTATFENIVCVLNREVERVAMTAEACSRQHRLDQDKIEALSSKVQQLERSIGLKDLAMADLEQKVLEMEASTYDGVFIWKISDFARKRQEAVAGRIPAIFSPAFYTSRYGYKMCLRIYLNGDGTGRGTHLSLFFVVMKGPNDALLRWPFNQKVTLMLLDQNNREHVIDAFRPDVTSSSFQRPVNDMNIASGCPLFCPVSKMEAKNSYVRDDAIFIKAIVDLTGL
Protocol: (§1) Membranes were washed with 1× Tris Buffered Saline (TBS) containing 50 mM Tris pH 7.5 (Fisher Scientific) and 150 mM sodium chloride (Fisher Scientific), and then blocked in 1% Blocking Reagent (Roche Molecular Biochemicals) dissolved in 1×TBS.
(§2) Membranes were probed with anti-Xpress, diluted 1:5000 in 0.5% Blocking Reagent, or anti-HA (12CA5) at 0.4 μg/ml (Roche Molecular Biochemicals) in 0.5% Blocking Reagent. Membranes were incubated for 1 hour, then washed twice with TBS containing 0.1% Tween-20 (Sigma Chemical Co.) (1× TBST) and twice with 0.5% Blocking Reagent. Membranes were incubated with anti-mouse IgG-Peroxidase (Roche Molecular Biochemicals) at 1:2500 in 0.5% Blocking Reagent for 60 minutes at room temperature, then washed 4 times in 1× TBST. Proteins were detected with the BM Chemiluminescence Blotting Substrate (POD) (Roche Molecular Biochemicals). Following detection, membranes were stripped of antibodies by incubation with stripping solution containing 62.5 mM Tris pH 6.7, 2% SDS, and 50 mM 2-mercaptoethanol (Fisher Scientific) for 30 minutes at 50° C. The membranes were rinsed with distilled water and then with 1×TBS. The stripped membranes were blocked and reprobed with antibodies as described above.

[2] = molecular target: GAL4 BD fusion of TRAF-3 aa 267-343 (coiled-coil domain only), in pGBT9 (human, UniProt P04386 1-147; Q13114 267-343); assay: yeast two-hybrid
[3] = molecular target: T2, GAL4 BD fusion of TRAF-3 aa 110-265 (Zn fingers only), in pGBT9 (human, UniProt P04386 1-147; Q13114 110-265); assay: yeast two-hybrid
T2 construct: The range is printed without its hyphen

[4] = molecular target: T3, HA-tagged β-galactosidase (pCGN/LacZ) (UniProt P00722 1-1024 = β-galactosidase); assay: co-immunoprecipitation from 293T lysates, anti-HA IP, anti-X-press blot
T3 construct: Specificity control, over-expressed in 293T cells; also called HA-LacZ; RA-LacZ; not shown: N-terminal hemagglutinin (HA) tag of vector pCGN
T3 sequence (P00722 whole entry): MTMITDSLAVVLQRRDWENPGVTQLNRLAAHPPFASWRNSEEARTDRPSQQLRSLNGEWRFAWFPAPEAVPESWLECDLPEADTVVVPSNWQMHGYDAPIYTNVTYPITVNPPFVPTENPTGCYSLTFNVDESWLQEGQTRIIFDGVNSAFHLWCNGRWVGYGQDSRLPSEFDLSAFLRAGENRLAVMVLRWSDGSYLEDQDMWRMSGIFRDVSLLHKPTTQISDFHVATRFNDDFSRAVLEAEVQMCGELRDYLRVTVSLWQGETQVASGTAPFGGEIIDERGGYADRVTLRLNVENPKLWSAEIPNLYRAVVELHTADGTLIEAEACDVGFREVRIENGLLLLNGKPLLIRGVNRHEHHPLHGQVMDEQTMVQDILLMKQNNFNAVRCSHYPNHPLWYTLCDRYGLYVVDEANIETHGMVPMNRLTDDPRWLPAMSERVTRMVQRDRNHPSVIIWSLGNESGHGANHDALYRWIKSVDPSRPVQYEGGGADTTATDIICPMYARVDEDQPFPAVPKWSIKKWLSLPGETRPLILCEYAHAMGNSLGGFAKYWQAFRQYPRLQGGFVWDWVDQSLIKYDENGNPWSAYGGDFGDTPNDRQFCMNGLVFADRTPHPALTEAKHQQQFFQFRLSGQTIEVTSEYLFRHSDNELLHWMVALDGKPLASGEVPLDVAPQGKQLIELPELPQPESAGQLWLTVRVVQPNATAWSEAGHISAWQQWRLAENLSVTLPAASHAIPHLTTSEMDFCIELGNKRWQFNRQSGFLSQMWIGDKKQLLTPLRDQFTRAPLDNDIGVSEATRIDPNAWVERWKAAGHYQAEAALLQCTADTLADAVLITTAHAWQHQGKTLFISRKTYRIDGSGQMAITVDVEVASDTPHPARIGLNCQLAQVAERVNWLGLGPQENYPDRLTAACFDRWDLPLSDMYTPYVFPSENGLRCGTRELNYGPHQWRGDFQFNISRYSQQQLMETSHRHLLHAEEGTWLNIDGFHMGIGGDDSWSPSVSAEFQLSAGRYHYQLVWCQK
Protocol: as §1, with “Samples were separated by 10% SDS PAGE and transferred to Immobilon-P PVDF membranes (Millipore Corporation, Bedford, Mass.). Membranes” for “Membranes”
as §2

[5] = molecular target: T4, GAL4 DNA-binding domain (BD)/full-length TRAF-3 fusion construct (pGBT9/TRAF-3) (human, UniProt P04386 1-147; Q13114 1-568); assay: yeast two-hybrid
T4 construct: Yeast two-hybrid fusion expressed in yeast Y190; BD is put first as in the vector; also called BD/TRAF-3; bait construct

[6] = molecular target: GAL4 BD/TRAF-4 fusion (pGBT9/TRAF-4) (UniProt P04386 1-147; Q9BUZ4 1-470, limits assumed); assay: yeast two-hybrid (β-gal, growth without His)
[7] = molecular target: GAL4 BD/TRAF-2 fusion (pGBT9/TRAF-2) (UniProt P04386 1-147; Q12933 1-501, limits assumed); assay: yeast two-hybrid (β-gal, growth without His)
[8] = molecular target: GAL4 BD/TRAF-6 fusion (pGBT9/TRAF-6) (UniProt P04386 1-147; Q9Y4K3 1-522, limits assumed); assay: yeast two-hybrid (β-gal, growth without His)
[9] = molecular target: GAL4 BD/TRAF-5 fusion (pGBT9/TRAF-5) (UniProt P04386 1-147; O00463 1-557, limits assumed); assay: yeast two-hybrid (β-gal, growth without His)

B1: HA-tagged p62(336-522) (pCGN/p62(336-522)), N-terminal hemagglutinin tag (other)
chain: LINKWSLELEDQERHFLQQATQVNAWDRTLIENGEKITSLHREVEKVKLDQKRLDQELDFILSQQKELEDLLSPLEELVKEQRATIYLQHADEERQKTYKLAENIDAQLKRMAQDLKDIIEHLNTSGAPADTSDPLQQICKILNAHMDSLQWIDQNSALLQRKVEEVTKVCVGRRKEQERSFRITFD
notes: not shown: N-terminal hemagglutinin (HA) tag of vector pCGN
B1: no binding [1].

B2: GAL4 AD fusion of p62 nucleoporin aa 336-522 (pACT/p62(336-522)) (other, not shown: large carriers)
chain: LINKWSLELEDQERHFLQQATQVNAWDRTLIENGEKITSLHREVEKVKLDQKRLDQELDFILSQQKELEDLLSPLEELVKEQRATIYLQHADEERQKTYKLAENIDAQLKRMAQDLKDIIEHLNTSGAPADTSDPLQQICKILNAHMDSLQWIDQNSALLQRKVEEVTKVCVGRRKEQERSFRITFD
B2: no binding [2]; no binding [3].

B3: His-tagged TRAF-3 (pEBVHis/TRAF-3), amino-terminal poly-histidine tag and X-press epitope (other, human, UniProt Q13114 1-568, looked up, not shown: small tags and cut ends)
chain: MESSKKMDSPGALQTNPPLKLHTDRSAGTPVFVPEQGGYKEKFVKTVEDKYKCEKCHLVLCSPKQTECGHRFCESCMAALLSSSSPKCTACQESIVKDKVFKDNCCKREILALQIYCRNESRGCAEQLMLGHLLVHLKNDCHFEELPCVRPDCKEKVLRKDLRDHVEKACKYREATCSHCKSQVPMIALQKHEDTDCPCVVVSCPHKCSVQTLLRSELSAHLSECVNAPSTCSFKRYGCVFQGTNQQIKAHEASSAVQHVNLLKEWSNSLEKKVSLLQNESVEKNKSIQSLHNQICSFEIEIERQKEMLRNNESKILHLQRVIDSQAEKLKELDKEIRPFRQNWEEADSMKSSVESLQNRVTELESVDKSAGQVARNTGLLESQLSRHDQMLSVHDIRLADMDLRFQVLETASYNGVLIWKIRDYKRRKQEAVMGKTLSLYSQPFYTGYFGYKMCARVYLNGDGMGKGTHLSLFFVIMRGEYDALLPWPFKQKVTLMLMDQGSSRRHLGDAFKPDPNSSSFKKPTGEMNIASGCPVFVAQTVLENGTYIKDDTIFIKVIVDTSDLPDP
notes: Over-expressed in 293T cells; tested in cell lysates
B3: no binding [4].

B4: GAL4 AD fusion of p62 nucleoporin aa 302-391 (deletion mutant in pGAD424) (other, not shown: large carriers; small tags and cut ends)
chain: IPSNTAAAVTAPPGPGAAAGAAASSAMTYAQLESLINKWSLELEDQERHFLQQATQVNAWDRTLIENGEKITSLHREVEKVKLDQKRLDQ
B4: no binding [5].

B5: GAL4 AD fusion of p62 nucleoporin aa 270-522 (pACT/p62(270-522)) (other, UniProt P37198 270-522, looked up, not shown: large carriers)
chain: TTSTAATATATTTSSSSTTGFALNLKPLAPAGIPSNTAAAVTAPPGPGAAAGAAASSAMTYAQLESLINKWSLELEDQERHFLQQATQVNAWDRTLIENGEKITSLHREVEKVKLDQKRLDQELDFILSQQKELEDLLSPLEELVKEQSGTIYLQHADEEREKTYKLAENIDAQLKRMAQDLKDIIEHLNTSGAPADTSDPLQQICKILNAHMDSLQWIDQNSALLQRKVEEVTKVCEGRRKEQERSFRITFD
B5: no binding [6]; no binding [7]; no binding [8]. B5: no binding [9].
